According to paper PMC6238537 (Life Science Alliance, 2018):

Target: T1, recombinant human laminin-511 (human, UniProt O15230 36-3695; P07942 22-1786; P11047 34-1609)
T1 construct: the FLAG tag stands just after the N-terminal signal peptide cleavage site; αβγ heterotrimer; also called LM511; not shown: FLAG, N-terminal, kept; copies: + +
Experiment: ELISA; solid-phase binding assay: 96-well plates coated with laminins at 5 nM overnight at 4°C, blocked with 3% BSA; 30 nM integrins for 3 h at room temperature with 1 mM Mn2+; bound integrins detected by biotinylated anti-Velcro pAb and HRP-streptavidin (absorbance at 490 nm)
Conditions: both partners purified

binding result	Binder
binds	recombinant integrin αvβ3 (receptor, human, integrin αv subunit, human, extracellular domain; integrin β3 subunit, human, extracellular domain; truncated soluble heterodimer; vectors from Dr. Junichi Takagi (Takagi et al, 2001, 2002a, b); Purification on ANTI-FLAG gel implies a FLAG tag) chain 1: FNLDVDSPAEYSGPEGSYFGFAVDFFVPSASSRMFLLVGAPKANTTQPGIVEGGQVLKCDWSSTRRCQPIEFDATGNRDYAKDDPLEFKSHQWFGASVRSKQDKILACAPLYHWRTEMKQEREPVGTCFLQDGTKTVEYAPCRSQDIDADGQGFCQGGFSIDFTKADRVLLGGPGSFYWQGQLISDQVAEIVSKYDPNVYSIKYNNQLATRTAQAIFDDSYLGYSVAVGDFNGDGIDDFVSGVPRAARTLGMVYIYDGKNMSSLYNFTGEQMAAYFGFSVAATDINGDDYADVFIGAPLFMDRGSDGKLQEVGQVSVSLQRASGDFQTTKLNGFEVFARFGSAIAPLGDLDQDGFNDIAIAAPYGGEDKKGIVYIFNGRSTGLNAVPSQILEGQWAARSMPPSFGYSMKGATDIDKNGYPDLIVGAFGVDRAILYRARPVITVNAGLEVYPSILNQDNKTCSLPGTALKVSCFNVRFCLKADGKGVLPRKLNFQVELLLDKLKQKGAIRRALFLYSRSPSHSKNMTISRGGLMQCEELIAYLRDESEFRDKLTPITIFMEYRLDYRTAADTTGLQPILNQFTPANISRQAHILLDCGEDNVCKPKLEVSVDSDQKKIYIGDDNPLTLIVKAQNQGEGAYEAELIVSIPLQADFIGVVRNNEALARLSCAFKTENQTRQVVCDLGNPMKAGTQLLAGLRFSVHQQSEMDTSVKFDLQIQSSNLFDKVSPVVSHKVDLAVLAAVEIRGVSSPDHVFLPIPNWEHKENPETEEDVGPVVQHIYELRNNGPSSFSKAMLHLQWPYKYNNNTLLYILHYDIDGPMNCTSDMEINPLRIKISSLQTTEKNDTVAGQGERDHLITKRDLALSEGDIHTLGCGVAQCLKIVCQVGRLDRGKSAILYVKSLLWTETFMNKENQNHSYSLKSSASFNVIEFPYKNLPIEDITNSTLVTTNVTWGIQPAPMPV chain 2: GPNICTTRGVSSCQQCLAVSPMCAWCSDEALPLGSPRCDLKENLLKDNCAPESIEFPVSEARVLEDRPLSDKGSGDSSQVTQVSPQRIALRLRPDDSKNFSIQVRQVEDYPVDIYYLMDLSYSMKDDLWSIQNLGTKLATQMRKLTSNLRIGFGAFVDKPVSPYMYISPPEALENPCYDMKTTCLPMFGYKHVLTLTDQVTRFNEEVKKQSVSRNRDAPEGGFDAIMQATVCDEKIGWRNDASHLLVFTTDAKTHIALDGRLAGIVQPNDGQCHVGSDNHYSASTTMDYPSLGLMTEKLSQKNINLIFAVTENVVNLYQNYSELIPGTTVGVLSMDSSNVLQLIVDAYGKIRSKVELEVRDLPEELSLSFNATCLNNEVIPGLKSCMGLKIGDTVSFSIEAKVRGCPQEKEKSFTIKPVGFKDSLIVQVTFDCDCACQAQAEPNSHRCNNGNGTFECGVCRCGPGWLGSQCECSEEDYRPSQQDECSPREGQPVCSQRGECLCGQCVCHSSDFGKITGKYCECDDFSCVRYKGEMCSGHGQCSCGDCLCDSDWTGYYCNCTTRTDTCMSSNGLLCSGRGKCECGSCVCIQPGSYGDTCEKCPTCPDACTFKKECVECKKFDRGALHDENTCNRYCRDEIESVKELKDTGKDAVNCTYKNEDDCVVRFQYYEDSSGKSILYVVEEPECPKGPD
binds	recombinant integrin αvβ5 (receptor, human, integrin αv subunit, human, extracellular domain; integrin β5 subunit, human, extracellular domain; cDNA amplified from RNA of T98G human glioblastoma cells; truncated soluble heterodimer; Purification on ANTI-FLAG gel implies a FLAG tag) chain 1: FNLDVDSPAEYSGPEGSYFGFAVDFFVPSASSRMFLLVGAPKANTTQPGIVEGGQVLKCDWSSTRRCQPIEFDATGNRDYAKDDPLEFKSHQWFGASVRSKQDKILACAPLYHWRTEMKQEREPVGTCFLQDGTKTVEYAPCRSQDIDADGQGFCQGGFSIDFTKADRVLLGGPGSFYWQGQLISDQVAEIVSKYDPNVYSIKYNNQLATRTAQAIFDDSYLGYSVAVGDFNGDGIDDFVSGVPRAARTLGMVYIYDGKNMSSLYNFTGEQMAAYFGFSVAATDINGDDYADVFIGAPLFMDRGSDGKLQEVGQVSVSLQRASGDFQTTKLNGFEVFARFGSAIAPLGDLDQDGFNDIAIAAPYGGEDKKGIVYIFNGRSTGLNAVPSQILEGQWAARSMPPSFGYSMKGATDIDKNGYPDLIVGAFGVDRAILYRARPVITVNAGLEVYPSILNQDNKTCSLPGTALKVSCFNVRFCLKADGKGVLPRKLNFQVELLLDKLKQKGAIRRALFLYSRSPSHSKNMTISRGGLMQCEELIAYLRDESEFRDKLTPITIFMEYRLDYRTAADTTGLQPILNQFTPANISRQAHILLDCGEDNVCKPKLEVSVDSDQKKIYIGDDNPLTLIVKAQNQGEGAYEAELIVSIPLQADFIGVVRNNEALARLSCAFKTENQTRQVVCDLGNPMKAGTQLLAGLRFSVHQQSEMDTSVKFDLQIQSSNLFDKVSPVVSHKVDLAVLAAVEIRGVSSPDHVFLPIPNWEHKENPETEEDVGPVVQHIYELRNNGPSSFSKAMLHLQWPYKYNNNTLLYILHYDIDGPMNCTSDMEINPLRIKISSLQTTEKNDTVAGQGERDHLITKRDLALSEGDIHTLGCGVAQCLKIVCQVGRLDRGKSAILYVKSLLWTETFMNKENQNHSYSLKSSASFNVIEFPYKNLPIEDITNSTLVTTNVTWGIQPAPMPV chain 2: GLNICTSGSATSCEECLLIHPKCAWCSKEDFGSPRSITSRCDLRANLVKNGCGGEIESPASSFHVLRSLPLSSKGSGSAGWDVIQMTPQEIAVNLRPGDKTTFQLQVRQVEDYPVDLYYLMDLSLSMKDDLDNIRSLGTKLAEEMRKLTSNFRLGFGSFVDKDISPFSYTAPRYQTNPCIGYKLFPNCVPSFGFRHLLPLTDRVDSFNEEVRKQRVSRNRDAPEGGFDAVLQAAVCKEKIGWRKDALHLLVFTTDDVPHIALDGKLGGLVQPHDGQCHLNEANEYTASNQMDYPSLALLGEKLAENNINLIFAVTKNHYMLYKNFTALIPGTTVEILDGDSKNIIQLIINAYNSIRSKVELSVWDQPEDLNLFFTATCQDGVSYPGQRKCEGLKIGDTASFEVSLEARSCPSRHTEHVFALRPVGFRDSLEVGVTYNCTCGCSVGLEPNSARCNGSGTYVCGLCECSPGYLGTRCECQDGENQSVYQNLCREAEGKPLCSGRGDCSCNQCSCFESEFGKIYGPFCECDNFSCARNKGVLCSGHGECHCGECKCHAGYIGDNCNCSTDISTCRGRDGQICSERGHCLCGQCQCTEPGAFGEMCEKCPTCPDACSTKRDCVECLLLHSGKPDNQTCHSLCRDEVITWVDTIVKDDQEAVLCFYKTAKDCVMMFTYVELPSGKSNLTVLREPECGNTPN
